B1: Uncharacterized protein YpfA (Bacillus subtilis), P38491 (parent)
chain: MIEIGENVLLEYIEENELKKAKSKAVSIENNELLIAYPVDVVTGRTVILHNDMEVTVEFVGKDEVPYRFISRIKGKVKDKLQMICLEMPPREKMKRIQRRQYVRTDAVLDVQIQPGNEEEIRTLSYNISAGGIAVVLADGLSFQSGESLRLIIRLPEEEHTRQIETEAVVRRIFNDPKSEKRKMTLEYSEIAAGDQQALLQYCIRRQLNKRRKARME
partner: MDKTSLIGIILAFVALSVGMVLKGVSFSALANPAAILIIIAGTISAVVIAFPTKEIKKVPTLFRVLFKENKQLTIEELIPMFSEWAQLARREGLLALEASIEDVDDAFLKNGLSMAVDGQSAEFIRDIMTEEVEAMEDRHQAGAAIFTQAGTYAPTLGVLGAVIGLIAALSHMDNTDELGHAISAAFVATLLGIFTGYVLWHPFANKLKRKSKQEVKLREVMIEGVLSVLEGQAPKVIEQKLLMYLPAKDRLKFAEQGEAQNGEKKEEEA

Variants of: B1
Conditions: with mota_bacsu motA

| Variant | effect of a mutation on the interaction |
| --- | --- |
| R104D | disrupting interaction |
| G132A | disrupting interaction |

The remaining lines, values ahead:

| effect of a mutation on the interaction | Variant |
| --- | --- |
| disrupting interaction | N127A |
| disrupting interaction | R100F |

— IntAct's records for PubMed 22821967
